T1: EsCas13d, nuclease-dead (Eubacterium siraeum, UniProt B0MS50, R295A;H300A;R849A;H854A)
T1 sequence: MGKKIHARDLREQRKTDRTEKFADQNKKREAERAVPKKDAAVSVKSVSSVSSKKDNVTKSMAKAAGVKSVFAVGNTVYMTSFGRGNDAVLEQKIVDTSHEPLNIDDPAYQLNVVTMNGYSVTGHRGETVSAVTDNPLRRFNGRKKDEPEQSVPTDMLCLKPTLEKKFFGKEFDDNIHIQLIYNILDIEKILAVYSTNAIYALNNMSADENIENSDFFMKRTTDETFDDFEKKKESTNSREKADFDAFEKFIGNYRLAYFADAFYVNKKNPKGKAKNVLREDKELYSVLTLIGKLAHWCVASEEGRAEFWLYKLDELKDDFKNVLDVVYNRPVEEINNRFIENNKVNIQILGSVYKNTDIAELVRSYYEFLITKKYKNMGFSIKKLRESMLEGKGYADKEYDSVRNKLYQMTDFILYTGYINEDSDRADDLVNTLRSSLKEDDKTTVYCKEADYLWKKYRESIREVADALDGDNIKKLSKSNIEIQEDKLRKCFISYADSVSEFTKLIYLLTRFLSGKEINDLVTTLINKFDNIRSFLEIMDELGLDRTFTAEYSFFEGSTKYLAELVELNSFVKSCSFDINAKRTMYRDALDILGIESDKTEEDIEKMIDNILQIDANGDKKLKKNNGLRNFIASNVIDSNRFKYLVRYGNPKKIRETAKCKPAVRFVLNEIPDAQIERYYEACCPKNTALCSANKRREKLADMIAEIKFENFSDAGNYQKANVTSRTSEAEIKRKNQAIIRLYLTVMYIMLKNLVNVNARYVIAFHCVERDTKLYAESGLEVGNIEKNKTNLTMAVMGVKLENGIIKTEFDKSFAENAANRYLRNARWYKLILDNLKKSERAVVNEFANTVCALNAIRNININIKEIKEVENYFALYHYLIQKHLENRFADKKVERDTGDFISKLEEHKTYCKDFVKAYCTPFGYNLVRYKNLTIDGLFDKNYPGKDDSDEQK


target: T1, EsCas13d, nuclease-dead; test: crRNA (strand 1, pre-loaded); Mg2+; 40 mM Tris-HCl pH 7.5, 150 mM NaCl, 6 mM MgCl2, 1 mM DTT, 0.1% Tween-20, 0.2 mg/ml BSA; 25 C; 10 min per concentration, then washed; conditions: tags: His6-TwinStrep-SUMO cleaved; N-terminal SNAP kept (SNAP-Surface 488); label: 3' end held by stalled T7 RNA polymerase

Binder | Kd [nM]
target 1 MT 5'PFS GCC 3'PFS UUU (mixed) RNA 1: CACCCGUGCAAAAAUGCAGGGGUCUAAAACUGAGCGGAUAACCUCUCUAUGG RNA 2: GGGAAUGGAUCCACAUCUACGAAUUCGCCCCAUAGAGAGGUUAUCCGCUCAUUUAGAUCGGAAGAGCACACGU | 9.4 ± 2
target 1 MT 5'PFS GGC 3'PFS ACG (mixed) RNA 1: CACCCGUGCAAAAAUGCAGGGGUCUAAAACUGAGCGGAUAACCUCUCUAUGG RNA 2: GGGAAUGGAUCCACAUCUACGAAUUCGGCCCAUAGAGAGGUUAUCCGCUCAACGAGAUCGGAAGAGCACACGU | 13.5 ± 2.85
target 1 MT 5'PFS GCU 3'PFS AUA (mixed) RNA 1: CACCCGUGCAAAAAUGCAGGGGUCUAAAACUGAGCGGAUAACCUCUCUAUGG RNA 2: GGGAAUGGAUCCACAUCUACGAAUUCGCUCCAUAGAGAGGUUAUCCGCUCAAUAAGAUCGGAAGAGCACACGU | 57 ± 16
target 1 MT 5'PFS GAA 3'PFS CCG (mixed) RNA 1: CACCCGUGCAAAAAUGCAGGGGUCUAAAACUGAGCGGAUAACCUCUCUAUGG RNA 2: GGGAAUGGAUCCACAUCUACGAAUUCGAACCAUAGAGAGGUUAUCCGCUCACCGAGAUCGGAAGAGCACACGU | 21 ± 5.5
target 1 MT 5'PFS GCA 3'PFS ACC (mixed) RNA 1: CACCCGUGCAAAAAUGCAGGGGUCUAAAACUGAGCGGAUAACCUCUCUAUGG RNA 2: GGGAAUGGAUCCACAUCUACGAAUUCGCACCAUAGAGAGGUUAUCCGCUCAACCAGAUCGGAAGAGCACACGU | ~32
target 1 MT 5'PFS UUC 3'PFS CCU (mixed) RNA 1: CACCCGUGCAAAAAUGCAGGGGUCUAAAACUGAGCGGAUAACCUCUCUAUGG RNA 2: GGGAAUGGAUCCACAUCUACGAAUUCUUCCCAUAGAGAGGUUAUCCGCUCACCUAGAUCGGAAGAGCACACGU | 66 ± 27
target 1 MT 5'PFS ACC 3'PFS UGU (mixed) RNA 1: CACCCGUGCAAAAAUGCAGGGGUCUAAAACUGAGCGGAUAACCUCUCUAUGG RNA 2: GGGAAUGGAUCCACAUCUACGAAUUCACCCCAUAGAGAGGUUAUCCGCUCAUGUAGAUCGGAAGAGCACACGU | ~19
target 1 MT 5'PFS GUU 3'PFS UUU (mixed) RNA 1: CACCCGUGCAAAAAUGCAGGGGUCUAAAACUGAGCGGAUAACCUCUCUAUGG RNA 2: GGGAAUGGAUCCACAUCUACGAAUUCGUUCCAUAGAGAGGUUAUCCGCUCAUUUAGAUCGGAAGAGCACACGU | 8.95 ± 0.95
target 1 MT 5'PFS GAA 3'PFS CCU (mixed) RNA 1: CACCCGUGCAAAAAUGCAGGGGUCUAAAACUGAGCGGAUAACCUCUCUAUGG RNA 2: GGGAAUGGAUCCACAUCUACGAAUUCGAACCAUAGAGAGGUUAUCCGCUCACCUAGAUCGGAAGAGCACACGU | ~21
target 1 MT 5'PFS UGA 3'PFS ACG (mixed) RNA 1: CACCCGUGCAAAAAUGCAGGGGUCUAAAACUGAGCGGAUAACCUCUCUAUGG RNA 2: GGGAAUGGAUCCACAUCUACGAAUUCUGACCAUAGAGAGGUUAUCCGCUCAACGAGAUCGGAAGAGCACACGU | 110 ± 50
target 1 MT 5'PFS CUG 3'PFS AAG (mixed) RNA 1: CACCCGUGCAAAAAUGCAGGGGUCUAAAACUGAGCGGAUAACCUCUCUAUGG RNA 2: GGGAAUGGAUCCACAUCUACGAAUUCCUGCCAUAGAGAGGUUAUCCGCUCAAAGAGAUCGGAAGAGCACACGU | 12.4 ± 3.4
target 1 MT 5'PFS AGG 3'PFS CGG (mixed) RNA 1: CACCCGUGCAAAAAUGCAGGGGUCUAAAACUGAGCGGAUAACCUCUCUAUGG RNA 2: GGGAAUGGAUCCACAUCUACGAAUUCAGGCCAUAGAGAGGUUAUCCGCUCACGGAGAUCGGAAGAGCACACGU | 41 ± 11.5
target 1 MT 5'PFS AGG 3'PFS CGU (mixed) RNA 1: CACCCGUGCAAAAAUGCAGGGGUCUAAAACUGAGCGGAUAACCUCUCUAUGG RNA 2: GGGAAUGGAUCCACAUCUACGAAUUCAGGCCAUAGAGAGGUUAUCCGCUCACGUAGAUCGGAAGAGCACACGU | ~90
target 1 MT 5'PFS CGC 3'PFS CCG (mixed) RNA 1: CACCCGUGCAAAAAUGCAGGGGUCUAAAACUGAGCGGAUAACCUCUCUAUGG RNA 2: GGGAAUGGAUCCACAUCUACGAAUUCCGCCCAUAGAGAGGUUAUCCGCUCACCGAGAUCGGAAGAGCACACGU | 19 ± 7
target 1 MT 5'PFS GAG 3'PFS UAA (mixed) RNA 1: CACCCGUGCAAAAAUGCAGGGGUCUAAAACUGAGCGGAUAACCUCUCUAUGG RNA 2: GGGAAUGGAUCCACAUCUACGAAUUCGAGCCAUAGAGAGGUUAUCCGCUCAUAAAGAUCGGAAGAGCACACGU | 28.5 ± 8
target 1 MT 5'PFS GAG 3'PFS UAC (mixed) RNA 1: CACCCGUGCAAAAAUGCAGGGGUCUAAAACUGAGCGGAUAACCUCUCUAUGG RNA 2: GGGAAUGGAUCCACAUCUACGAAUUCGAGCCAUAGAGAGGUUAUCCGCUCAUACAGAUCGGAAGAGCACACGU | ~60
target 1 MT 5'PFS GCC 3'PFS CAG (mixed) RNA 1: CACCCGUGCAAAAAUGCAGGGGUCUAAAACUGAGCGGAUAACCUCUCUAUGG RNA 2: GGGAAUGGAUCCACAUCUACGAAUUCGCCCCAUAGAGAGGUUAUCCGCUCACAGAGAUCGGAAGAGCACACGU | 44 ± 21
target 1 MT 5'PFS GCU 3'PFS AUU (mixed) RNA 1: CACCCGUGCAAAAAUGCAGGGGUCUAAAACUGAGCGGAUAACCUCUCUAUGG RNA 2: GGGAAUGGAUCCACAUCUACGAAUUCGCUCCAUAGAGAGGUUAUCCGCUCAAUUAGAUCGGAAGAGCACACGU | 76 ± 31
target 1 C4A,A9U (mixed) RNA 1: CACCCGUGCAAAAAUGCAGGGGUCUAAAACUGAGCGGAUAACCUCUCUAUGG RNA 2: GGGAAUGGAUCCACAUCUACGAAUUCGUACCAUAGAGAGGUUUUCCGAUCACCGAGAUCGGAAGAGCACACGU | 4.45 ± 0.25
target 1 C2U,G12C (mixed) RNA 1: CACCCGUGCAAAAAUGCAGGGGUCUAAAACUGAGCGGAUAACCUCUCUAUGG RNA 2: GGGAAUGGAUCCACAUCUACGAAUUCGUACCAUAGAGAGCUUAUCCGCUUACCGAGAUCGGAAGAGCACACGU | 7.1 ± 0.5
target 1 MT 5'PFS CUG 3'PFS CCG (mixed) RNA 1: CACCCGUGCAAAAAUGCAGGGGUCUAAAACUGAGCGGAUAACCUCUCUAUGG RNA 2: GGGAAUGGAUCCACAUCUACGAAUUCCUGCCAUAGAGAGGUUAUCCGCUCACCGAGAUCGGAAGAGCACACGU | 3.05 ± 0.55
target 1 MT 5'PFS UCA 3'PFS ACA (mixed) RNA 1: CACCCGUGCAAAAAUGCAGGGGUCUAAAACUGAGCGGAUAACCUCUCUAUGG RNA 2: GGGAAUGGAUCCACAUCUACGAAUUCUCACCAUAGAGAGGUUAUCCGCUCAACAAGAUCGGAAGAGCACACGU | 13.2 ± 3.35
target 1 MT 5'PFS UCA 3'PFS ACU (mixed) RNA 1: CACCCGUGCAAAAAUGCAGGGGUCUAAAACUGAGCGGAUAACCUCUCUAUGG RNA 2: GGGAAUGGAUCCACAUCUACGAAUUCUCACCAUAGAGAGGUUAUCCGCUCAACUAGAUCGGAAGAGCACACGU | 14 ± 4.5
target 1 MT 5'PFS AGG 3'PFS CGC (mixed) RNA 1: CACCCGUGCAAAAAUGCAGGGGUCUAAAACUGAGCGGAUAACCUCUCUAUGG RNA 2: GGGAAUGGAUCCACAUCUACGAAUUCAGGCCAUAGAGAGGUUAUCCGCUCACGCAGAUCGGAAGAGCACACGU | 44 ± 19
target 1 MT 5'PFS AUG 3'PFS UGA (mixed) RNA 1: CACCCGUGCAAAAAUGCAGGGGUCUAAAACUGAGCGGAUAACCUCUCUAUGG RNA 2: GGGAAUGGAUCCACAUCUACGAAUUCAUGCCAUAGAGAGGUUAUCCGCUCAUGAAGAUCGGAAGAGCACACGU | 52 ± 19.5
target 1 MT 5'PFS CAG 3'PFS UUG (mixed) RNA 1: CACCCGUGCAAAAAUGCAGGGGUCUAAAACUGAGCGGAUAACCUCUCUAUGG RNA 2: GGGAAUGGAUCCACAUCUACGAAUUCCAGCCAUAGAGAGGUUAUCCGCUCAUUGAGAUCGGAAGAGCACACGU | 19.7 ± 3.55
target 1 MT 5'PFS UCA 3'PFS ACG (mixed) RNA 1: CACCCGUGCAAAAAUGCAGGGGUCUAAAACUGAGCGGAUAACCUCUCUAUGG RNA 2: GGGAAUGGAUCCACAUCUACGAAUUCUCACCAUAGAGAGGUUAUCCGCUCAACGAGAUCGGAAGAGCACACGU | ~65
target 1 MT 5'PFS GAG 3'PFS UAG (mixed) RNA 1: CACCCGUGCAAAAAUGCAGGGGUCUAAAACUGAGCGGAUAACCUCUCUAUGG RNA 2: GGGAAUGGAUCCACAUCUACGAAUUCGAGCCAUAGAGAGGUUAUCCGCUCAUAGAGAUCGGAAGAGCACACGU | 46.5 ± 15.5

Source: PMC10786891, “Massively parallel profiling of RNA-targeting CRISPR-Cas13d”
